Assay results taken from the DeepSol protein solubility set.

Assay: soluble on expression in E. coli; label from the status in PepcDB or PDB records

| Sequence | soluble on expression in E. coli |
| --- | --- |
| MNVFKTQTLLCPSGVHSRPEDHDETPFLCSKAQSVTVVAFLVARLLATLATHQMTSHTEGLRKGGGRKDTQLMKGQCSAIKVIFWPGCLPQPRMHSRLHIRSINKGGQLRPTGCNK | soluble |
| MNVGILGIGRYVPEKVVTNHDLEKIMDTSDEWIRTRTGIAERRIADDTIDTSYMAVEASKKALEDAGISGEDIDLILVATVTPDRAFPAVACVIQEAIGAKHAAAMDLSAACAGFMYGMITAQQFIQTGTYKNVLVVGSDKLSKIVDWNDRNTAVLFGDGAGAIVMGAVSEGKGVLSFELGADGSGGKHLYQDEYVMMNGREVFKFAVRQLGDSCLRVLDKAGLTKEDVDFLVPHQANIRIMESARERLNLPQEKMSMTIEKFGNTSASSIPIAMVEELQNGRIQDGDLIILVGFGGGLTWGAVALRWGK | not soluble |
| MNVINETANVLKLETGSVTSAKGFSAVGIHTGVKRKRKDLGAIVCEVPASSAAVYTLNKVQAAPLKVTQESIAVEGKLQAMIVNSGIANACTGKRGLDDAYTMRAVGAETFHIPEHYVAVTSTGVIGEFLPMDVITNGIRQLKPEATIEGAHAFNEAILTTDTVEKHTCYQTIVNGKTVTVGGVAKGSGMIHPNMATMLSFVTTDANIDHGHLQGALSAITNETFNRITVDGDTSTNDMVVVMASGLAENEALTPEHPDWANFYKALQLACEDLAKQIARDGEGATKLIEVEVTGAANDQEAGMVAKQIVGSDLVKTAIYGADANWGRIICAIGYSGCEVNQETIDIAIGPIVTLKQSEPTGFSEEEATAYLKEADPVKISVNLHIGNGTGKAWGCDLTYDYVRINAGYRTLEHHHHHH | not soluble |
| MNVIRTEIEDVLILEPRVFGDDRGFFYESFNQSAFEHILGYPVSFVQDNHSRSSKNVLRGLHFQRGEYAQDKLVRCTHGAVFDVAVDIRPNSVSFGKWVGVLLSADNKQQLWIPKGFAHGFLVLSDIAEFQYKTTNYYHPESDCGICWNDERIAIDWPQTSGLILSPKDERLFTLDELIRLKLIA | not soluble |
| MNVMMQKVHGSENDFFLLDETQFERSLTAEEIEQLRIQLCSRETGLLAGADGLLLVGEGTHGTSNARMRVINSDGSEASMCGNGLRTVARYLAEKNQEKSFTVETMFADLKVRQAPNLAEEVATYQVEISPVSFEAVTIPMHLGVQTLIDEIVPALSNTIRFTAVAVPNPHLVAFVDHETLNGPEFERIATYVNNENPYFPEGINVSFVEILGKNQLFVRTYERGVGFTSACGTAMCASSLLYTLLKDGVFYEEITVKNTGGMVKTVVHETSDGSYWMELIGNATITHLIEGSLTDLLNGAFEKITITETNEQKHYQEFLQTLSQK | not soluble |
| MNWNKRLLDTPIIGDITKKIVSAKASREAHNISDHFTQFLQPCVAVSQTLKEEAFKIRHNVYCEELAFEEVRDNGQETDEFDHQSMFSLIKHKPSGTFTSCVRLVTSSGPDELLPIEKYCMGSITNEELSPKRFNRNEIAEISRLAVKSDFRRRKADNYKGSGTGVISEITYSETELRCFPFIAIGLYMAAATMSMNTGIRHVYVMMEPRLARSMKFIGINFQQLGPPVDYHGLRAPYYINPEIFMKNLSPGFKSLFSIIEEDICSQLNQLDLA | not soluble |
| MNYHQYYPIDVVNGPGTRCTLFVSGCVHQCKGCYNQSTWSLSSGHRYTQEMEDKIIADLKDTRIKRRGLSLSGGDPMHPANLSAVLQLVQRVKTECPDKDIWLWTGYTLAELDDSQQALLPYIDVLVDGKFIQEQADPGLEWRGSANQVIHRFTLLEHHHHHH | not soluble |
| MNYKADIGVFGGSGFYSFLENVEEIEMETPYGKPSDKIAIATYEGKRIAFLPRHGKNHQFPPHMIPYRANLYAMKKLGVKKILAPTSSGSLRADIKPGDFVICDQFVDRTTGRKDTFYDGPVTKHISSAHPYCPELRKIAIQVGKDLGITTHEKGTVVVIQGPRFSTVAESRWFSKMGWDVINMTQYPEVYLARELGICYANIALITDYDAGLEGRDDIEPVTEEAVLKVFAENNEKVKNMLFEVIKRIDLENSNCTCCNVDLSGLDL | soluble |
| MPAIEVGRICVKVKGREAGSKCVIVDIIDDNFVLVTGPKDITGVKRRRVNILHLEPTDKKIDIQKGASDEEVKKKLEESNLTEYMKEKIKIRMPTL | soluble |
| MPASYLHHRSVTQQLPIMSTPHTDFFGLTIPFMQLLGVVPEHSGNGTARTRLPARADLVNSRGDIHGGTLMSVLDFTLGAAIRGDTPEVGVATIDMNTSFMSPGRGDLVIETRCLRRGASIAFCEGEIRDSAGELVAKATATFKIIQRRPGLEHHHHHH | soluble |
| MPAVTQPRGESKYDAIPGPLGPQSASLEGKVALVTGAGRGIGREMAMELGRRGCKVIVNYANSTESAEEVVAAIKKNGSDAACVKANVGVVEDIVRMFEEAVKIFGKLDIVCSNSGVVSFGHVKDVTPEEFDRVFTINTRGQFFVAREAYKHLEIGGRLILMGSITGQAKAVPKHAVYSGSKGAIETFARCMAIDMADKKITVNVVAPGGIKTDMYHAVCREYIPNGENLSNEEVDEYAAVQWSPLRRVGLPIDIARVVCFLASNDGGWVTGKVIGIDGGACM | soluble |
| MPDEIYLFTPKGKIFALPKNSTALDFAYAVHTDIGNHAVTSRVDKQLMPLRTKLSSGQTVEIITARSALPKPQWLEHHHHHH | not soluble |
| MPDRLQLLEERLVVNKDRFKAGSVQIGKRIETRQETVSVPLQREEVVIERHAVTDGRAVEGAVLGEGHQTMSVDLEAERANISKQAYVTEEVSVGKRAVTETQQVTETVGREVLDVNQTGDVRLEHHHHHH | not soluble |
| MPDSDTGSNMAHTMTAAVQQAQGVDNPDDLAAVAMALATGAVKGARGNSGVVLSQVLRGIAHHADSGRIDAHVIQEALRSSLDFVAAAISDPVEGTVITVLRAAAIAATNSEDRSLAAVVSVAAHAARIALAETPSQLQVLRDAKVVDAGGQGLVILLDCLEHVVTGTATSYDPHIIETTEQQQSHGTSGYLEVMCFIAGVEVSHLHDLLAPLGDCLVIGPISDTSATVHIHSTDAATVISTLYATGTITDLHIEVLPETPKVVHPKRIVLALTPPGDLAQLYTDAGALVVVRDGHHFAIARSTNLGQAETPLADGIEIVNELVARSHQSGAQEVILLPNGLLTTQEMAAVERSSQAFKQSITMLPTGSLVRGLAALSVHDPQQSLAVATYAMTEAMSGMRTAVIERAEHAALTPAGACAKGDLLVHLGTEPIAVAEQPEEALRIACRRLLDIGGEQILILARKELALTPDNHSLTGPHTDVEINQYDVDRLGALIEIGVE | not soluble |
| MPEDVKNFYLMTNGFHMTWSVKLDEHIIPLGSMAINSISKLTQLTQSSMYSLPNAPTLADLEDDTHEASDDQPEKPHFDSRSVIFELDSCNGSGKVCLVYKSGKPALAEDTEIWFLDRALYWHFLTDTFTAYYRLLITHLGLPQWQYAFTSYGISPQAKVREEHLPL | not soluble |
| MPEILKIKPTRMELLKLKRRVKLAERGHKLLKEKQDALIMEFFTIYDEALSLRRELIRKMEEAFNSLRRAQVDVGALRLKEIAIGVKPNKEIEIKTRNIMGVRVPLIEVPELKRKASERGYAFVSTTSTVDMAAEKFEEVLELAIRLAEVEESLKRLGKEIEKTKRRVNALEYIIIPRMENTIKFIEQHLDEMERENFFRLKRVKAILEARQSMLEHHHHHH | soluble |
| MPETELHVIFDQPNEVFFPGQPISGRVVLSTTEEKYKARAVNIKILGLAHTSWTDYDSVRRVDNDGNVRYDSESVHYSSNVHYLDQALLLWACKDGSNELSAGDYVWPFSYTLPLNVPPSFEGKYGYLRYSVTAEVDRPWRLDKAKRRCITVSPLIDLNAIPLALTPIDDEESENLGCCFFRKGYLELRVNIPKTGFVPGETVPMNIHILNHSSVPVTEVKAKIIQQCKFIAYRNGTIFRFDGGSDTLMSGSSQQTKYDTKPVITQTQPMTVTPGNEHKFVLEFRLPSVTPTICRFSPVITVEYVVQVRVETTSTCGSAAKCEMPILIGTVPIRNYLPPPIPNNYPIGLPPPYANLTDVNVPCPSGGSGTAVIPSAPPPSYQESMYGVGGTELRAEENEKPFAPKYPVFNNLPIYNPTAPPSE | not soluble |
| MPFIAAMWHGQHIMISFMSRPQDRVATIISRSPDGNINTMALTRMGVRVMRASGARGRAVKDARAKGGAEGLRAMVKALKGGETVAFSADVPKVSRVCLEHHHHHH | not soluble |
